Experimental data from patent US7250195B1, “Molecular plasma deposition of colloidal materials” (Ionic Fusion Corporation, priority 2006, dated 2007).
Converted amounts (≈) assume the structure as drawn. One block for each molecule: values may come before it.

Experiments:
[1] = cited from earlier work
[2] = catalysis of 5% hydrogen peroxide solution by plasma-deposited catalase coating; type: biochemical, bovine; details: for catalytic activity after molecular plasma deposition: deposited 10 min on aluminum oxide disk, placed in 5% hydrogen peroxide
Excerpt: Using the apparatus illustrated in FIG. 2, the high voltage power supply was attached to a 304 stainless steel, 18 gauge needle set at −5000V. The substrate was an aluminum oxide disk ¼″ thick by 1.5″ in diameter, having an area of approximately 11 sq cm and set at a potential of 5000 V. The substrate was centered and placed 5 cm from the hole in the chamber. The chamber was pumped to 40 mTorr and the flow of the colloidal suspension initiated. The deposition onto the substrate was allowed to proceed for 10 minutes. At the end of the deposition process, the substrate was removed from the chamber and the sample was placed in a 5% solution of hydrogen peroxide.
The deposition was repeated twice under the same conditions, except that after the substrate was removed from the chamber, the samples were placed in an ultrasonic water bath for 10 min. Additionally, one of the samples was maintained at 10° C. for 72 hr after removal from the bath.

[3] = activity of the catalase colloidal suspension before deposition; type: biochemical, bovine; details: colloidal suspension in water with 0.1% thymol, protein 33 mg/ml
Experimental: 25 ml of a 2× crystallized bovine liver catalase (Sigma C100-58MG; 056K7010) colloidal suspension in water with 0.1% thymol was prepared. Protein concentration was 33 mg/ml with an activity of 4.1×10^4 U/ml.

Molecule: NCCCC[C@H](N)C(=O)O [Lysine]
water solubility (in words) [1]: highly water soluble

Molecule: Nc1ncnc2nc[nH]c12 [adenine]
water solubility [1]: 500 µg/mL (≈ 3.7 mM)

Molecule: Nc1nc2nc[nH]c2c(=O)[nH]1 [guanine]
water solubility [1]: insoluble

Molecule: Nc1cc[nH]c(=O)n1 [cytosine]
water solubility [1]: insoluble

catalytic activity after molecular plasma deposition ([2]; listed as Catalase): without loss of catalytic activity | activity of suspension [3]: 4.1×10^4 U/ml
B1: catalase: 2× crystallized bovine liver catalase (Sigma C100-58MG; 056K7010), a polypeptide enzyme (protein, UniProt P00432 2-527, looked up)
Catalase: ADNRDPASDQMKHWKEQRAAQKPDVLTTGGGNPVGDKLNSLTVGPRGPLLVQDVVFTDEMAHFDRERIPERVVHAKGAGAFGYFEVTHDITRYSKAKVFEHIGKRTPIAVRFSTVAGESGSADTVRDPRGFAVKFYTEDGNWDLVGNNTPIFFIRDALLFPSFIHSQKRNPQTHLKDPDMVWDFWSLRPESLHQVSFLFSDRGIPDGHRHMNGYGSHTFKLVNANGEAVYCKFHYKTDQGIKNLSVEDAARLAHEDPDYGLRDLFNAIATGNYPSWTLYIQVMTFSEAEIFPFNPFDLTKVWPHGDYPLIPVGKLVLNRNPVNYFAEVEQLAFDPSNMPPGIEPSPDKMLQGRLFAYPDTHRHRLGPNYLQIPVNCPYRARVANYQRDGPMCMMDNQGGAPNYYPNSFSAPEHQPSALEHRTHFSGDVQRFNSANDDNVTQVRTFYLKVLNEEQRKRLCENIAGHLKDAQLFIQKKAVKNFSDVHPEYGSRIQALLDKYNEEKPKNAVHTYVQHGSHLSAREKANL
catalytic activity after deposition and ultrasonic water bath ([2]; coated sample in ultrasonic water bath 10 min, then 5% hydrogen peroxide): produced bubbling of oxygen from the surface of the substrate | catalytic activity after molecular plasma deposition [2]: producing bubbling of oxygen from the surface | catalytic activity after deposition, ultrasonic water bath and storage ([2]; ultrasonic water bath 10 min, then 10° C. for 72 hr, then 5% hydrogen peroxide): produced bubbling of oxygen from the surface of the substrate
